Data: US20150203577A1 (Chugai, published 2015)

T1: mouse FcγRII extracellular domain, C-terminally His-tagged (mouse, UniProt P08101 30-210)
T1 construct: the whole entry is named; also called mFcγRII; mFcgRII
T1 sequence: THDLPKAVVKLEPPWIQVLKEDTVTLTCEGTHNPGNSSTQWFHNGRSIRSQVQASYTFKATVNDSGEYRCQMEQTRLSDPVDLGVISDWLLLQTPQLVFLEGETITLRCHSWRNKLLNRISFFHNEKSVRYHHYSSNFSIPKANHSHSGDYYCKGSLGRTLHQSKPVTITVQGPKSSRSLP

T2: mouse FcγRIII extracellular domain, C-terminally His-tagged (mouse, UniProt P08508 31-215)
T2 construct: the whole entry is named; also called mFcγRIII; mFcgRIII
T2 chain: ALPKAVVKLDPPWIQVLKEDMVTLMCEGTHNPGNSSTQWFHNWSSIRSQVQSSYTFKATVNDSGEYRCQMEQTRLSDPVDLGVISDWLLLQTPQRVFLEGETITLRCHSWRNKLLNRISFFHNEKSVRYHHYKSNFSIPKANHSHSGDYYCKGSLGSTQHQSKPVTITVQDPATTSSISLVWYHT


Key:
[1] = target: T1, mouse FcγRII extracellular domain, …; assay: SPR Biacore T200, KD ratio, template MB515
Excerpt: (§1) The antibody H chain variable region used was the variable region H237 (SEQ ID NO: 1) of the H chain VH3-IgG1 of the anti-IL-6 receptor antibody Fv4-IgG1 described in WO2009/125825. The antibody L chain commonly used was the L chain MRAL-k0 (SEQ ID NO: 2) of the anti-IL-6 receptor antibody tocilizumab. H237-MB476/MRAL-k0 and H237-MB515/MRAL-k0 were used as templates to introduce new alterations. These variants were expressed and purified by the method of Reference Example 1 and evaluated for their binding to mFcγRII and mFcγRIII by the method of Reference Example 2 using Biacore T200.
(§2) Each altered antibody was analyzed for its interaction with each Fcγ receptor prepared above using Biacore T100 (GE Healthcare Japan Corp.), Biacore T200 (GE Healthcare Japan Corp.), Biacore A100, or Biacore 4000. The running buffer used was HBS-EP+ (GE Healthcare Japan Corp.). The assay temperature was set to 25° C. The sensor chips used were chips prepared by immobilizing Protein L (ACTIGEN or BioVision) onto Series S Sensor Chip CM5 (GE Healthcare Japan Corp.) or Series S Sensor Chip CM4 (GE Healthcare Japan Corp.) by the amine coupling method.
(§3) In order to calculate the KD value of each altered antibody for FcγR, kinetic analysis was conducted according to the following method: first, the antibody of interest was captured onto any of these chips and allowed to interact with mFcγR diluted with a running buffer. For the obtained sensorgram, the assay results were globally fit into the 1:1 Langmuir binding model using Biacore Evaluation Software to calculate an association rate constant ka (L/mol/s) and a dissociation rate constant kd (1/s). From these values, the dissociation constant KD (mol/L) was calculated.

[2] = target: T2, mouse FcγRIII extracellular domain, …; assay: SPR Biacore T200, KD ratio, template MB515
Excerpt: as §1, §2, §3

[3] = target: T1, mouse FcγRII extracellular domain, …; assay: SPR Biacore T200, KD ratio
Excerpt: as §1, §2, §3

[4] = target: T2, mouse FcγRIII extracellular domain, …; assay: SPR Biacore T200, KD ratio
Excerpt: as §1, §2, §3

[5] = target: T1, mouse FcγRII extracellular domain, …; assay: SPR Biacore T200, KD ratio, template MB476
Excerpt: as §1, §2, §3

[6] = target: T2, mouse FcγRIII extracellular domain, …; assay: SPR Biacore T200, KD ratio, template MB476
Excerpt: as §1, §2, §3

relative mFcγRII-binding activity (template = 1) [1] | relative mFcγRIII-binding activity (template = 1) [2] | relative mFcγRII-binding activity (mIgG1 = 1) [3] | relative mFcγRIII-binding activity (mIgG1 = 1) [4] | relative mFcγRII-binding activity (template = 1) [5] | relative mFcγRIII-binding activity (template = 1) [6] | Binder
– | – | 422 fold | 8.5 fold | 1.61 fold | 3.21 fold | H237-MB535/MRAL-k0 (antibody, mouse IgG1, kappa, copies: 2 + 2) heavy: QVQLQESGPGLVKPSETLSLTCAVSGHSISHDHAWSWVRQPPGEGLEWIGFISYSGITNYNPSLQGRVTISRDNSKNTLYLQMNSLRAEDTAVYYCARSLARTTAMDYWGEGTLVTVSSAKTTPPSVYPLAPGSAAQTNSMVTLGCLVKGYFPEPVTVTWNSGSLSSGVHTFPAVLQSDLYTLSSSVTVPSSTWPSETVTCNVAHPASSTKVDKKIVPRDCGCKPCICQPNEVEEVFIFPPKPKDVLTITLTPKVTCVVVDISKDDPEVQFSWFVDDVEVHTAQTQPREEQFNLTFRSVSELPIMHQDWLNGKEFKCRVNSDAFPAPIERTISKTKGRPKAPQVYTIPPPKEQMAKDKVSLTCMITDFFPEDITVEWQWNGQPAENYKNTQPIMDTDGSYFVYSKLNVQKSNWEAGNTFTCSVLHEGLHNHHTEKSLSHSPGK light: not shown
– | – | 396 fold | 7.7 fold | 1.52 fold | 2.9 fold | H237-MB536/MRAL-k0 (antibody, mouse IgG1, kappa, copies: 2 + 2) heavy: QVQLQESGPGLVKPSETLSLTCAVSGHSISHDHAWSWVRQPPGEGLEWIGFISYSGITNYNPSLQGRVTISRDNSKNTLYLQMNSLRAEDTAVYYCARSLARTTAMDYWGEGTLVTVSSAKTTPPSVYPLAPGSAAQTNSMVTLGCLVKGYFPEPVTVTWNSGSLSSGVHTFPAVLQSDLYTLSSSVTVPSSTWPSETVTCNVAHPASSTKVDKKIVPRDCGCKPCICQPNEVEEVFIFPPKPKDVLTITLTPKVTCVVVDISKDDPEVQFSWFVDDVEVHTAQTQPREEQFNSTFRSVSELPIMHQDWLNGKEFKCRVDSDAFPAPIERTISKTKGRPKAPQVYTIPPPKEQMAKDKVSLTCMITDFFPEDITVEWQWNGQPAENYKNTQPIMDTDGSYFVYSKLNVQKSNWEAGNTFTCSVLHEGLHNHHTEKSLSHSPGK light: not shown
– | – | 510 fold | 8.9 fold | 1.95 fold | 3.36 fold | H237-MB537/MRAL-k0 (antibody, mouse IgG1, kappa, also called M6537; copies: 2 + 2) heavy: QVQLQESGPGLVKPSETLSLTCAVSGHSISHDHAWSWVRQPPGEGLEWIGFISYSGITNYNPSLQGRVTISRDNSKNTLYLQMNSLRAEDTAVYYCARSLARTTAMDYWGEGTLVTVSSAKTTPPSVYPLAPGSAAQTNSMVTLGCLVKGYFPEPVTVTWNSGSLSSGVHTFPAVLQSDLYTLSSSVTVPSSTWPSETVTCNVAHPASSTKVDKKIVPRDCGCKPCICQPNEVEEVFIFPPKPKDVLTITLTPKVTCVVVDISKDDPEVQFSWFVDDVEVHTAQTQPREEQFNLTFRSVSELPIMHQDWLNGKEFKCRVDSDAFPAPIERTISKTKGRPKAPQVYTIPPPKEQMAKDKVSLTCMITDFFPEDITVEWQWNGQPAENYKNTQPIMDTDGSYFVYSKLNVQKSNWEAGNTFTCSVLHEGLHNHHTEKSLSHSPGK light: not shown
– | – | 421 fold | 33.8 fold | 1.61 fold | 12.8 fold | H237-MB534/MRAL-k0 (antibody, mouse IgG1, kappa, copies: 2 + 2) heavy: QVQLQESGPGLVKPSETLSLTCAVSGHSISHDHAWSWVRQPPGEGLEWIGFISYSGITNYNPSLQGRVTISRDNSKNTLYLQMNSLRAEDTAVYYCARSLARTTAMDYWGEGTLVTVSSAKTTPPSVYPLAPGSAAQTNSMVTLGCLVKGYFPEPVTVTWNSGSLSSGVHTFPAVLQSDLYTLSSSVTVPSSTWPSETVTCNVAHPASSTKVDKKIVPRDCGCKPCICQPNEVEEVFIFPPKPKDVLTITLTPKVTCVVVDISKDDPEVQFSWFVDDVEVHTAQTQPREEQFNLTFRSVSELPIMHQDWLNGKEFKCRVDSAAFPAPIERTISKTKGRPKAPQVYTIPPPKEQMAKDKVSLTCMITDFFPEDITVEWQWNGQPAENYKNTQPIMDTDGSYFVYSKLNVQKSNWEAGNTFTCSVLHEGLHNHHTEKSLSHSPGK light: not shown

The next lines start with the binder.

Binder | relative mFcγRII-binding activity (template = 1) [1] | relative mFcγRIII-binding activity (template = 1) [2] | relative mFcγRII-binding activity (mIgG1 = 1) [3] | relative mFcγRIII-binding activity (mIgG1 = 1) [4] | relative mFcγRII-binding activity (template = 1) [5] | relative mFcγRIII-binding activity (template = 1) [6]
H237-MB515/MRAL-k0 (antibody, mouse IgG1, kappa, Template; copies: 2 + 2) heavy: QVQLQESGPGLVKPSETLSLTCAVSGHSISHDHAWSWVRQPPGEGLEWIGFISYSGITNYNPSLQGRVTISRDNSKNTLYLQMNSLRAEDTAVYYCARSLARTTAMDYWGEGTLVTVSSAKTTPPSVYPLAPGSAAQTNSMVTLGCLVKGYFPEPVTVTWNSGSLSSGVHTFPAVLQSDLYTLSSSVTVPSSTWPSETVTCNVAHPASSTKVDKKIVPRDCGCKPCICEPNEVEMVFIFPPKPKDVLTITLTPKVTCVVVDISKDDPEVQFSWFVDDVEVHTAQTQPREEQFNSTFRSVSELPIMHQDWLNGKEFKCRVNSAAFPAPIEKTISKTKGRPKAPQVYTIPPPKEQMAKDKVSLTCMITDFFPEDITVEWQWNGQPAENYKNTQPIMDTDGSYFVYSKLNVQKSNWEAGNTFTCSVLHEGLHNHHTEKSLSHSPGK light: not shown | 1 fold | 1 fold | 137 fold | 1.3 fold | – | –
H237-MB531/MRAL-k0 (antibody, mouse IgG1, kappa, copies: 2 + 2) heavy: QVQLQESGPGLVKPSETLSLTCAVSGHSISHDHAWSWVRQPPGEGLEWIGFISYSGITNYNPSLQGRVTISRDNSKNTLYLQMNSLRAEDTAVYYCARSLARTTAMDYWGEGTLVTVSSAKTTPPSVYPLAPGSAAQTNSMVTLGCLVKGYFPEPVTVTWNSGSLSSGVHTFPAVLQSDLYTLSSSVTVPSSTWPSETVTCNVAHPASSTKVDKKIVPRDCGCKPCICQPNEVEEVFIFPPKPKDVLTITLTPKVTCVVVDISKDDPEVQFSWFVDDVEVHTAQTQPREEQFNSTFRSVSELPIMHQDWLNGKEFKCRVDSAAFPAPIERTISKTKGRPKAPQVYTIPPPKEQMAKDKVSLTCMITDFFPEDITVEWQWNGQPAENYKNTQPIMDTDGSYFVYSKLNVQKSNWEAGNTFTCSVLHEGLHNHHTEKSLSHSPGK light: not shown | – | – | 229 fold | 3.3 fold | 0.88 fold | 1.25 fold
H237-MB532/MRAL-k0 (antibody, mouse IgG1, kappa, copies: 2 + 2) heavy: QVQLQESGPGLVKPSETLSLTCAVSGHSISHDHAWSWVRQPPGEGLEWIGFISYSGITNYNPSLQGRVTISRDNSKNTLYLQMNSLRAEDTAVYYCARSLARTTAMDYWGEGTLVTVSSAKTTPPSVYPLAPGSAAQTNSMVTLGCLVKGYFPEPVTVTWNSGSLSSGVHTFPAVLQSDLYTLSSSVTVPSSTWPSETVTCNVAHPASSTKVDKKIVPRDCGCKPCICQPNEVEEVFIFPPKPKDVLTITLTPKVTCVVVDISKDDPEVQFSWFVDDVEVHTAQTQPREEQFNSTFRSVSELPIMHQDWLNGKEFKCRVNSDAFPAPIERTISKTKGRPKAPQVYTIPPPKEQMAKDKVSLTCMITDFFPEDITVEWQWNGQPAENYKNTQPIMDTDGSYFVYSKLNVQKSNWEAGNTFTCSVLHEGLHNHHTEKSLSHSPGK light: not shown | – | – | 329 fold | 6.2 fold | 1.26 fold | 2.35 fold
H237-MB533/MRAL-k0 (antibody, mouse IgG1, kappa, copies: 2 + 2) heavy: QVQLQESGPGLVKPSETLSLTCAVSGHSISHDHAWSWVRQPPGEGLEWIGFISYSGITNYNPSLQGRVTISRDNSKNTLYLQMNSLRAEDTAVYYCARSLARTTAMDYWGEGTLVTVSSAKTTPPSVYPLAPGSAAQTNSMVTLGCLVKGYFPEPVTVTWNSGSLSSGVHTFPAVLQSDLYTLSSSVTVPSSTWPSETVTCNVAHPASSTKVDKKIVPRDCGCKPCICQPNEVEEVFIFPPKPKDVLTITLTPKVTCVVVDISKDDPEVQFSWFVDDVEVHTAQTQPREEQFNLTFRSVSELPIMHQDWLNGKEFKCRVDSDAFPAPIEKTISKTKGRPKAPQVYTIPPPKEQMAKDKVSLTCMITDFFPEDITVEWQWNGQPAENYKNTQPIMDTDGSYFVYSKLNVQKSNWEAGNTFTCSVLHEGLHNHHTEKSLSHSPGK light: not shown | – | – | 394 fold | 7.2 fold | 1.51 fold | 2.74 fold
